Patent US20230118024A1 (Chugai, published 2023)

T1: recombinant HLA-DQ2.5/33mer gliadin peptide complex (human; wheat)
T1 construct: also called soluble HLA-DQ2.5/33mer gliadin peptide complex
T1 alpha: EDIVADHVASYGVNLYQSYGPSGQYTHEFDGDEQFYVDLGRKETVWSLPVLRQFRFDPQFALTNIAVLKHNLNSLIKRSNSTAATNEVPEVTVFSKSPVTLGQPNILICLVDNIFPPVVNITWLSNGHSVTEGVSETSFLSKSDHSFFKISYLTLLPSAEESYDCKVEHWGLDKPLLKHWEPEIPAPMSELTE
T1 beta: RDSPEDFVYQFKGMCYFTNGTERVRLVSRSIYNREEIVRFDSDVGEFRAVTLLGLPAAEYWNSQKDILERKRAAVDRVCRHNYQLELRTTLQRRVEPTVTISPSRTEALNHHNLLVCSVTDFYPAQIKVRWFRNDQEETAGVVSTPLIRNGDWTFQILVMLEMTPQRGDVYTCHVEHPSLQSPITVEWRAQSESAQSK
T1 peptide: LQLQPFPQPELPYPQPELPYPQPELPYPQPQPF

T2: HLA-DQ2.5 on Ba/F3 cells (not in the form of a complex with a linked peptide) (human, UniProt P01909 24-254; P01920 33-261)
T2 construct: also called Ba/F3-HLA-DQ2.5; No peptide
T2 MHC II alpha: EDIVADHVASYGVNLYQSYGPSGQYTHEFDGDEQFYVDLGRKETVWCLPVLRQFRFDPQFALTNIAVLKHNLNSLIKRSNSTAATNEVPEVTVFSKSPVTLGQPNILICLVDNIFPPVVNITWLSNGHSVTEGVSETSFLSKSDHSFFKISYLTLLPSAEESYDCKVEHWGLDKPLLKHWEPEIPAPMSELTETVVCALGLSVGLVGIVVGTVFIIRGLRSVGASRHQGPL
T2 MHC II beta: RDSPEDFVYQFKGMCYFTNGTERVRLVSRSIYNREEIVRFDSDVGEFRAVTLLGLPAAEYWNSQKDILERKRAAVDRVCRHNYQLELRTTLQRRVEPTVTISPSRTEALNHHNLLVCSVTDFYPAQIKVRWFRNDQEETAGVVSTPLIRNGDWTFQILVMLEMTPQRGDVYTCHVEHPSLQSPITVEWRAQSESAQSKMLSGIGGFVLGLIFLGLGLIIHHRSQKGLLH

T3: HLA-DQ2.5 on HLA-DQ2.5 positive PBMC-B cells (human, UniProt P01909 24-254; P01920 33-261)
T3 construct: also called DQ2.5 + PBMC; HLA-DQ2.5+PBMC B cell
T3 MHC II alpha: T2 MHC II alpha
T3 MHC II beta: T2 MHC II beta

B1: DQN0334bb (antibody, human IgG1, kappa, V domains shown)
VH: QQQLEESGGDLVQPEGSLTLTCKASGFDFSFNAMCWVRQAPGRGPEWIACIYNGNGSTYYASWAKGRFTISKTSSTSVTLQMTSLTAADTATYFCARGGYGLGYAGYGDVNYFNLWGPGTLVTVSS
VL: AVVLTQTASPVSAPVGGTVTIKCQASEDIYFLLAWYRQKPGQPPKLLIYGASTLASGVPSRFKGSGSGTEYTLTISDLECADAATYYCQSYWYGDSGPNTFGGGTKVEIKR
notes: also called DQN0334Hb; DQN0334Lb
B2: DQN0282ff (antibody, human IgG1, kappa, V domains shown)
VH: QSVEESGGRLVTPGTPLTLSCKASGFDFSIYYMSWVRQAPGKGLEWIGVINSGGGVTWYASWVKGRFTISKTSTTVDLKITSPTTEDTATYFCARLGDSNHYDLWGPGTLVTVSS
VL: AYDMTQTPSSVSAAVGGTVTIKCQASETISSYLAWYQQKPGQRPQLLIYDASNLASGVPSRFKGSGSGTEFTLTISDLECADAATYYCQTHYYITSTTFGGGTKVEIKR
notes: also called DQN0282Hf; DQN0282Lf
B3: DQN0225dd (antibody, human IgG1, kappa, V domains shown)
VH: QSLEESGGGLVKPGGTLTLTCTASGFSFSSAYYMCWVRQAPGKGLEWIACIYVGSGSTYYASWAQGRCTISKASSTTVTLQMTSLTAADTATYFCARDPLIYYYYGELNLWGPGTLVTVSS
VL: AVVLTQTASPVSAPVGGTVTIKCQASEDISSNLAWYQQKPGQRPKVLIYSASTLASGVSSQFKGSGSGTQFTLTISDLECADAATYYCQSYYDISSVTFGGGTKVEIKR
notes: also called DQN0225Hd; DQN0225Ld
B4: DQN0324hh (antibody, human IgG1, kappa, V domains shown)
VH: QSLEESGGDLVKPGASLALTCTASGFSLINNYYMCWVRQAPGKGLEWIACIYAGLGGWTYYASWAKGRFTISKTSSTTVTLQMSSLTVADAATYFCARAATTYYHFNLWGPGTLVTVSS
VL: AVVLTQTESPVSAAVGDTVTIKCQASQSIGNALAWYQQKPGQPPKLLIYDASTLASGVPSRFKGSGSGTQFTLTISDLECADAATYYCQSYDYGSSADTYTFGGGTKVEIKR
notes: also called DQN0324Lh

Target: T1, recombinant HLA-DQ2.5/33mer gliadin …
Assay: AlphaLISA neutralizing assay: biotinylated HLA-DQ2.5/33mer gliadin peptide complex on acceptor beads, biotinylated D2 TCR on donor beads; blocked ligand: D2 TCR (Example 4.4)

Row | Binder | IC50 (read off the curve) [µg/mL]
1 | B1 | ~1
2 | B2 | ~0.3

Target: T1, recombinant HLA-DQ2.5/33mer gliadin …
Assay: SPR, Ab captured, 37 C, pH 7.4

Row | Binder | Kd [nM]
3 | B1 | 6.29
4 | B2 | 13.7

Target: T1, recombinant HLA-DQ2.5/33mer gliadin …
Assay: SPR, Ab captured, 37 C, pH 7.4
Remark: another data set of the same source

Row | Binder | Kd [nM]
5 | B3 | 7.88
6 | B4 | 6.32
7 | B1 | 5.72
8 | B2 | 11.4

Target: T1, recombinant HLA-DQ2.5/33mer gliadin …
Assay: AlphaLISA neutralizing assay: biotinylated HLA-DQ2.5/33mer gliadin peptide complex on acceptor beads, biotinylated D2 TCR on donor beads; blocked ligand: D2 TCR (Example 12)

Row | Binder | IC50 (read off the curve) [µg/mL]
9 | B1 | ~0.7

target: T4, HLA-DQ2.5/33mer gliadin peptide complex on Ba/F3 cells (human; wheat); assay: cell-based or functional assay

Row | Binder | IC50 (read off the curve) [µg/mL]
10 | B3 | ~0.3
11 | B4 | ~0.2

target: T5, HLA-DQ2.5/omega 2 gliadin peptide complex on Ba/F3 cells (human; wheat); assay: FACS
T5 construct: also called Ba/F3-HLA-DQ2.5/omega 2 gliadin peptide

Row | Binder | FIG. 30 FACS value (IC17=0, DQN0139bb=100)
12 | B3 | 62
13 | B4 | 79.4
14 | B1 | 36.6
15 | B2 | 42.6

target: T6, HLA-DQ2.5/alpha 2 gliadin peptide complex on Ba/F3 cells (human; wheat); assay: FACS
T6 construct: also called Ba/F3-HLA-DQ2.5/alpha 2 gliadin peptide

Row | Binder | FIG. 30 FACS value (IC17=0, DQN0139bb=100)
16 | B3 | 85.1
17 | B4 | 34.9
18 | B1 | 45.3
19 | B2 | 34.5

target: T7, HLA-DQ2.5/alpha 1b gliadin peptide complex on Ba/F3 cells (human; wheat); assay: FACS
T7 construct: also called Ba/F3-HLA-DQ2.5/alpha 1b gliadin peptide

Row | Binder | FIG. 30 FACS value (IC17=0, DQN0139bb=100)
20 | B3 | 81.3
21 | B4 | 8.2
22 | B1 | 16.5
23 | B2 | 20.9

target: T8, HLA-DQ2.5/omega 1 gliadin peptide complex on Ba/F3 cells (human; wheat); assay: FACS
T8 construct: also called Ba/F3-HLA-DQ2.5/omega 1 gliadin peptide

Row | Binder | FIG. 30 FACS value (IC17=0, DQN0139bb=100)
24 | B3 | 75.6
25 | B4 | 7.3
26 | B1 | 2.8
27 | B2 | 7

target: T4, HLA-DQ2.5/33mer gliadin peptide complex …; assay: FACS

Row | Binder | FIG. 30 FACS value (IC17=0, DQN0139bb=100)
28 | B3 | 108
29 | B4 | 59.2
30 | B1 | 65.9
31 | B2 | 73.5

Target: T2, HLA-DQ2.5 on Ba/F3 cells (not in the …)
Assay: FACS

Row | Binder | FIG. 30 FACS value (IC17=0, DQN0139bb=100)
32 | B3 | -0.1
33 | B4 | 0
34 | B1 | 0.4
35 | B2 | 3

target: T9, HLA-DQ2.5/secalin 1 peptide complex on Ba/F3 cells (human; rye); assay: FACS
T9 construct: also called Ba/F3-HLA-DQ2.5/secalin 1 peptide

Row | Binder | FIG. 30 FACS value (IC17=0, DQN0139bb=100)
36 | B3 | 77.2
37 | B4 | 16.3
38 | B1 | 5
39 | B2 | 49.6

target: T10, HLA-DQ2.5/secalin 2 peptide complex on Ba/F3 cells (human; rye); assay: FACS
T10 construct: also called Ba/F3-HLA-DQ2.5/secalin 2 peptide

Row | Binder | FIG. 30 FACS value (IC17=0, DQN0139bb=100)
40 | B3 | 68.7
41 | B4 | 14.5
42 | B1 | 3.3
43 | B2 | 48

target: T11, HLA-DQ2.5/alpha 1 gliadin peptide complex on Ba/F3 cells (human; wheat); assay: FACS
T11 construct: also called Ba/F3-HLA-DQ2.5/alpha 1 gliadin peptide

Row | Binder | FIG. 30 FACS value (IC17=0, DQN0139bb=100)
44 | B3 | 93.5
45 | B4 | 26.9
46 | B1 | 46.4
47 | B2 | 32.6

target: T12, HLA-DQ2.5/CLIP peptide complex on Ba/F3 cells (human); assay: FACS
T12 construct: also called Ba/F3-HLA-DQ2.5/CLIP peptide

Row | Binder | FIG. 30 FACS value (IC17=0, DQN0139bb=100)
48 | B3 | 1.2
49 | B4 | 0.3
50 | B1 | 1.2
51 | B2 | 28.7

Target: T3, HLA-DQ2.5 on HLA-DQ2.5 positive PBMC-B …
Assay: FACS

Row | Binder | FIG. 30 FACS value (IC17=0, DQN0139bb=100)
52 | B3 | -0.1
53 | B4 | 0.3
54 | B1 | 0.8
55 | B2 | 4.3
